{"source": "patent US20130115678", "assay_in_all_cases": "cleavage_in_vitro", "key": {"[1]": {"molecular_target": "T1, SalI-HF R107A (Streptomyces albus G) (UniProt Q53608)", "T1 sequence": "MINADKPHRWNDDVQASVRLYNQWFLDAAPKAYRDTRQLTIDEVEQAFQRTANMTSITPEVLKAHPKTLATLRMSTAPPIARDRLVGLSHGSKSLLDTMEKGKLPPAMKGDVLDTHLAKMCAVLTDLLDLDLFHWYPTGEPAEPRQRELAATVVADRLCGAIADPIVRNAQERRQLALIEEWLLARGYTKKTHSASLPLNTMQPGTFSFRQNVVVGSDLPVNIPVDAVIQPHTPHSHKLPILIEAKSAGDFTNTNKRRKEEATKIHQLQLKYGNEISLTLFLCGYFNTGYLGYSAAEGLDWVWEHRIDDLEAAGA", "settings": "NEB4, 37 C, Mg2+; FI NEB1-3: >=8000, >=64000, >=4000"}, "[2]": {"molecular_target": "T2, SalI (Streptomyces albus G) (UniProt Q53608)", "T2 sequence": "T1 sequence with A107R", "settings": "NEB4, 37 C, Mg2+; FI NEB1-3: 8, 1, 32"}, "[3]": {"test_system": "T3, BspQI-HF K279P/R388F (Bacillus sphaericus)", "T3 sequence": "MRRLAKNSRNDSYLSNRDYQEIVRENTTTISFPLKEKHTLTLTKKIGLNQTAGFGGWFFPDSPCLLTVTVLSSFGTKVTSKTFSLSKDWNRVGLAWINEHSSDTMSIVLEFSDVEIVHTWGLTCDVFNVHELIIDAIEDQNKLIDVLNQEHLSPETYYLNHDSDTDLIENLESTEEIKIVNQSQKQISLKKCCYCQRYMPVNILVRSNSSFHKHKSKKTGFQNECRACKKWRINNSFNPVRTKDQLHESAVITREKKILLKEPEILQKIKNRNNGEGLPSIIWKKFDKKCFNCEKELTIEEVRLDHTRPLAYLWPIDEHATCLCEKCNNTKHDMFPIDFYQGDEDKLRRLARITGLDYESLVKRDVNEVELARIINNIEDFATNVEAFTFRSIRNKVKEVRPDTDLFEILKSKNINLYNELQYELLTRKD", "settings": "NEB4, 50 C, Mg2+; FI NEB1-3: >=1000, >=1000, >=64"}, "[4]": {"test_system": "T4, AvrII (Anabaena variabilis)", "T4 sequence": "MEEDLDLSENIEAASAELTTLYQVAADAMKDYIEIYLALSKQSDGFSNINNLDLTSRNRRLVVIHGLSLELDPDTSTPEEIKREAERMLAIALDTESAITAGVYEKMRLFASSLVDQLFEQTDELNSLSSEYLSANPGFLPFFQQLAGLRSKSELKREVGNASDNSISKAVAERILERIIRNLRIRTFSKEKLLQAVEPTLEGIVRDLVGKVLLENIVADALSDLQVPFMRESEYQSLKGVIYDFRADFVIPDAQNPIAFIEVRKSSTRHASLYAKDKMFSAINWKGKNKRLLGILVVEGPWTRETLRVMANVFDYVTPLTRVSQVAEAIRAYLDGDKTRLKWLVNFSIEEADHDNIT", "settings": "NEB4, 37 C, Mg2+; FI NEB1-3: 64, 8, 32"}, "[5]": {"test_system": "T5, AvrII-HF Y104F (Anabaena variabilis)", "T5 sequence": "T4 sequence with Y104F", "settings": "NEB4, 37 C, Mg2+; FI NEB1-3: 500, >=500, >=16"}, "[6]": {"molecular_target": "T6, PvuII-HF T46G (Proteus vulgaris) (UniProt P23657)", "T6 sequence": "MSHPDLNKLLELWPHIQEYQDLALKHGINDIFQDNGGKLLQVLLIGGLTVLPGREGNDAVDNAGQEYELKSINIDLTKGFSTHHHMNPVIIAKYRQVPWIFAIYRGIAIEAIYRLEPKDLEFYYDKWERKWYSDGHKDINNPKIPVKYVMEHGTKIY", "settings": "NEB4, 37 C, Mg2+; FI NEB1-3: >=250, >=2000, >=250"}, "[7]": {"molecular_target": "T7, PvuII (Proteus vulgaris) (UniProt P23657)", "T7 sequence": "T6 sequence with G46T", "settings": "NEB4, 37 C, Mg2+; FI NEB1-3: 250, 16, 8"}}, "note": "Changes are numbered by the printed parent chain."}
{"substance": "HindIII-digested lambda DNA", "values": [{"measurement": "activity (fidelity index)", "setting": "[1]", "value": "> 32000"}, {"measurement": "activity (fidelity index)", "setting": "[2]", "value": 1}]}
{"substance": "pUC19", "values": [{"measurement": "activity (fidelity index)", "setting": "[3]", "value": "> 4000"}]}
{"substance": "T7 DNA", "values": [{"measurement": "activity (fidelity index)", "setting": "[4]", "value": 32}, {"measurement": "activity (fidelity index)", "setting": "[5]", "value": "> 1000"}]}
{"substance": "pBR322", "values": [{"measurement": "activity (fidelity index)", "setting": "[6]", "value": 500}, {"measurement": "activity (fidelity index)", "setting": "[7]", "value": 0.25}]}
